The supplement of paper PMC11246515
± gives the standard deviation of the averaged measurements.

Test: total protein half-life in vivo (active degradation + dilution); higher = more stable protein
[1] = E. coli NCM3722 delta-clpP delta-lon delta-hslV, growth: N-lim chemostat, doubling time 6 h
[2] = E. coli NCM3722 delta-clpP, growth: N-lim chemostat, doubling time 6 h
[3] = E. coli NCM3722 delta-hslV, growth: N-lim chemostat, doubling time 6 h
[4] = E. coli NCM3722 delta-lon, growth: N-lim chemostat, doubling time 6 h
[5] = E. coli NCM3722 delta-smpB, growth: N-lim chemostat, doubling time 6 h
[6] = wild type E. coli NCM3722, growth: C-lim chemostat, doubling time 3 h
[7] = wild type E. coli NCM3722, growth: C-lim chemostat, doubling time 6 h
[8] = wild type E. coli NCM3722, growth: C-lim chemostat, doubling time 12 h
[9] = wild type E. coli NCM3722, growth: N-lim chemostat, doubling time 6 h
[10] = wild type E. coli NCM3722, growth: N-lim chemostat, doubling time 12 h
[11] = wild type E. coli NCM3722, growth: P-lim chemostat, doubling time 6 h
[12] = wild type E. coli NCM3722, growth: P-lim chemostat, doubling time 12 h

Sequence | total protein half-life in vivo [1] [h] | total protein half-life in vivo [2] [h] | total protein half-life in vivo [3] [h] | total protein half-life in vivo [4] [h] | total protein half-life in vivo [5] [h] | total protein half-life in vivo [6] [h] | total protein half-life in vivo [7] [h] | total protein half-life in vivo [8] [h] | total protein half-life in vivo [9] [h] | total protein half-life in vivo [10] [h] | total protein half-life in vivo [11] [h] | total protein half-life in vivo [12] [h]
MTITKLAWRDLVPDTDSYQEIFAQPHLIDENDPLFSDTQPRLQFALEQLLHTRASSSFMLAKAPEESEYLNLIANAARTLQSDAGQLVGGHYEVSGHSIRLRHAVSADDNFATLTQVVAADWVEAEQLFGCLRQFNGDITLQPGLVHQANGGILIISLRTLLAQPLLWMRLKNIVNRERFDWVAFDESRPLPVSVPSMPLKLKVILVGERESLADFQEMEPELSEQAIYSEFEDTLQIVDAESVTQWCRWVTFTARHNHLPAPGADAWPILIREAARYTGEQETLPLSPQWILRQCKEVASLCDGDTFSGEQLNLMLQQREWREGFLAERMQDEILQEQILIETEGERIGQINALSVIEFPGHPRAFGEPSRISCVVHIGDGEFTDIERKAELGGNIHAKGMMIMQAFLMSELQLEQQIPFSASLTFEQSYSEVDGDSASMAELCALISALADVPVNQSIAITGSVDQFGRAQPVGGLNEKIEGFFAICQQRELTGKQGVIIPTANVRHLSLHSELVKAVEEGKFTIWAVDDVTDALPLLLNLVWDGEGQTTLMQTIQERIAQASQQEGRHRFPWPLRWLNWFIPN | 6.81 ± 0.57 | 6.24 ± 0.11 | 7.24 ± 1.1 | 6 ± 0.53 | 6.58 ± 0.43 | 3.017 ± 0.024 | 5.99 ± 0.54 | 9.75 ± 2.2 | 6.17 ± 0.21 | 13.7 ± 1.1 | 6.4 ± 0.075 | 12.6 ± 1.4
MTITPATHAISINPATGEQLSVLPWAGADDIENALQLAAAGFRDWRETNIDYRAEKLRDIGKALRARSEEMAQMITREMGKPINQARAEVAKSANLCDWYAEHGPAMLKAEPTLVENQQAVIEYRPLGTILAIMPWNFPLWQVMRGAVPIILAGNGYLLKHAPNVMGCAQLIAQVFKDAGIPQGVYGWLNADNDGVSQMIKDSRIAAVTVTGSVRAGAAIGAQAGAALKKCVLELGGSDPFIVLNDADLELAVKAAVAGRYQNTGQVCAAAKRFIIEEGIASAFTERFVAAAAALKMGDPRDEENALGPMARFDLRDELHHQVEKTLAQGARLLLGGEKMAGAGNYYPPTVLANVTPEMTAFREEMFGPVAAITIAKDAEHALELANDSEFGLSATIFTTDETQARQMAARLECGGVFINGYCASDARVAFGGVKKSGFGRELSHFGLHEFCNIQTVWKDRI | 3.43 ± 0.22 | 2.38 ± 0.15 | 2.3185 ± 0.00041 | 3.35 ± 0.57 | 2.62 ± 0.24 | 2.87 ± 0.15 | 4.72 ± 0.27 | 7.87 ± 0.72 | 2.56 ± 0.092 | 3.65 ± 0.4 | 5.341 ± 0.022 | 9.54 ± 0.88
MTITPQNLIALLPLLIVGLTVVVVMLSIAWRRNHFLNATLSVIGLNAALVSLWFVGQAGAMDVTPLMRVDGFAMLYTGLVLLASLATCTFAYPWLEGYNDNKDEFYLLVLIAALGGILLANANHLASLFLGIELISLPLFGLVGYAFRQKRSLEASIKYTILSAAASSFLLFGMALVYAQSGDLSFVALGKNLGDGMLNEPLLLAGFGLMIVGLGFKLSLVPFHLWTPDVYQGAPAPVSTFLATASKIAIFGVVMRLFLYAPVGDSEAIRVVLAIIAFASIIFGNLMALSQTNIKRLLGYSSISHLGYLLVALIALQTGEMSMEAVGVYLAGYLFSSLGAFGVVSLMSSPYRGPDADSLFSYRGLFWHRPILAAVMTVMMLSLAGIPMTLGFIGKFYVLAVGVQAHLWWLVGAVVVGSAIGLYYYLRVAVSLYLHAPEQPGRDAPSNWQYSAGGIVVLISALLVLVLGVWPQPLISIVRLAMPLM [P0AFF0] | 7.16 | 6.36 ± 0.41 | 6.09 ± 1.6 | – | 6.08 | 3.46 | – | – | 5.29 | – | – | 11.8 ± 1.4
MTIVRIDAEARWSDVVIHNNTLYYTGVPENLDADAFEQTANTLAQIDAVLEKQGSNKSSILDATIFLADKNDFAAMNKAWDAWVVAGHAPVRCTVQAGLMNPKYKVEIKIVAAV [P0AEB7] | 5.7 ± 0.14 | 5.4 ± 0.17 | 4.95 ± 0.36 | 5.51 ± 0.45 | 5.45 ± 0.95 | 3.02 ± 0.18 | 7.21 ± 0.84 | 13.5 ± 0.29 | 6.27 ± 1.3 | 11.2 ± 0.66 | 6.16 ± 0.16 | 12 ± 2.1
MTKHYDYIAIGGGSGGIASINRAAMYGQKCALIEAKELGGTCVNVGCVPKKVMWHAAQIREAIHMYGPDYGFDTTINKFNWETLIASRTAYIDRIHTSYENVLGKNNVDVIKGFARFVDAKTLEVNGETITADHILIATGGRPSHPDIPGVEYGIDSDGFFALPALPERVAVVGAGYIAVELAGVINGLGAKTHLFVRKHAPLRSFDPMISETLVEVMNAEGPQLHTNAIPKAVVKNTDGSLTLELEDGRSETVDCLIWAIGREPANDNINLEAAGVKTNEKGYIVVDKYQNTNIEGIYAVGDNTGAVELTPVAVAAGRRLSERLFNNKPDEHLDYSNIPTVVFSHPPIGTVGLTEPQAREQYGDDQVKVYKSSFTAMYTAVTTHRQPCRMKLVCVGSEEKIVGIHGIGFGMDEMLQGFAVALKMGATKKDFDNTVAIHPTAAEEFVTMR | 5.12 ± 0.23 | 5.46 ± 0.48 | 4.85 ± 0.18 | 5.81 ± 0.49 | 4.64 ± 0.066 | 3.02 ± 0.17 | 6.27 ± 0.5 | 11.5 ± 0.61 | 5.08 ± 0.14 | 8.33 ± 0.71 | 6.07 ± 0.31 | 13 ± 0.92
MTKKKAHKPGSATIALNKRARHEYFIEEEFEAGLALQGWEVKSLRAGKANISDSYVLLRDGEAFLFGANITPMAVASTHVVCDPTRTRKLLLNQRELDSLYGRVNREGYTVVALSLYWKNAWCKVKIGVAKGKKQHDKRSDIKEREWQVDKARIMKNAHR [P0A832] | 6.34 ± 0.4 | 6.17 ± 1.2 | 6.55 ± 0.43 | – | – | 3.07 ± 0.46 | – | 13.1 ± 0.6 | 5.94 ± 0.25 | – | 5.73 ± 0.2 | 11.7 ± 0.31
MTKKLHIKTWGCQMNEYDSSKMADLLDATHGYQLTDVAEEADVLLLNTCSIREKAQEKVFHQLGRWKLLKEKNPDLIIGVGGCVASQEGEHIRQRAHYVDIIFGPQTLHRLPEMINSVRGDRSPVVDISFPEIEKFDRLPEPRAEGPTAFVSIMEGCNKYCTYCVVPYTRGEEVSRPSDDILFEIAQLAAQGVREVNLLGQNVNAWRGENYDGTTGSFADLLRLVAAIDGIDRIRFTTSHPIEFTDDIIEVYRDTPELVSFLHLPVQSGSDRILNLMGRTHTALEYKAIIRKLRAARPDIQISSDFIVGFPGETTEDFEKTMKLIADVNFDMSYSFIFSARPGTPAADMVDDVPEEEKKQRLYILQERINQQAMAWSRRMLGTTQRILVEGTSRKSIMELSGRTENNRVVNFEGTPDMIGKFVDVEITDVYPNSLRGKVVRTEDEMGLRVAETPESVIARTRKENDLGVGYYQP [P0AEI1] | 4.82 ± 0.13 | 2.04 ± 0.24 | 1.57 ± 0.14 | 2.12 ± 0.29 | 1.54 ± 0.098 | 1.5 ± 0.018 | 2.18 ± 0.19 | 2.62 ± 0.22 | 1.632 ± 0.015 | 2.12 ± 0.027 | 1.97 ± 0.35 | 3.75 ± 0.39
MTKLQLKYRELKIISVIAASENISHAATVLGIAQANVSKYLADFESKVGLKVFDRTTRQLMLTPFGTALLPYINDMLDRNEQLNNFIADYKHEKRGRVTIYAPTGIITYLSKHVIDKIKDIGDITLSLKTCNLERNAFYEGVEFPDDCDVLISYAPPKDESLVASFITQYAVTAYASQRYLEKHPISRPDELEHHSCILIDSMMIDDANIWRFNVAGSKEVRDYRVKGNYVCDNTQSALELARNHLGIVFAPDKSVQSDLQDGTLVPCFQQPYEWWLDLVAIFRKREYQPWRVQYVLDEMLREIRHQLAQSQQLRPEQAAESED | 5.588 ± 0.0059 | 5.07 ± 0.4 | 4.7 ± 0.45 | 4.98 ± 0.36 | 4.54 ± 0.47 | 2.74 ± 0.18 | – | 10.9 ± 2 | 4.15 ± 0.18 | 7.04 ± 0.43 | 6.03 ± 0.88 | 10.1 ± 0.15
MTKMSRYALITALAMFLAGCVGQREPAPVEEVKPAPEQPAEPQQPVPTVPSVPTIPQQPGPIEHEDQTAPPAPHIRHYDWNGAMQPMVSKMLGADGVTAGSVLLVDSVNNRTNGSLNAAEATETLRNALANNGKFTLVSAQQLSMAKQQLGLSPQDSLGTRSKAIGIARNVGAHYVLYSSASGNVNAPTLQMQLMLVQTGEIIWSGKGAVSQQ [P0AB38] | 5.22 ± 0.26 | 5.7 ± 0.39 | 6.59 ± 0.23 | 6.43 ± 0.46 | 6.495 ± 0.062 | 3.38 ± 0.095 | 6.19 ± 0.46 | 10.9 ± 0.91 | 6.102 ± 0.019 | 12.3 ± 0.41 | 5.94 ± 0.24 | 11.7 ± 1.2
MTKSELIERLATQQSHIPAKTVEDAVKEMLEHMASTLAQGERIEIRGFGSFSLHYRAPRTGRNPKTGDKVELEGKYVPHFKPGKELRDRANIYG [P0A6Y1] | 6.88 ± 0.81 | 5.26 ± 0.3 | 5.99 ± 1.1 | 6.3 ± 0.4 | 4.64 ± 0.21 | 2.47 ± 0.093 | 4.3 ± 0.44 | 6.05 ± 0.37 | 4.71 ± 0.18 | 8.31 ± 2.4 | 2.62 ± 0.24 | 5.3658 ± 0.0042
MTKVLLSHPPRPASHNSSRAMVWVRKNLFSSWSNSLLTIGCIWLMWELIPPLLNWAFLQANWVGSTRADCTKAGACWVFIHERFGQFMYGLYPHDQRWRINLALLIGLVSIAPMFWKILPHRGRYIAAWAVIYPLIVWWLMYGGFFALERVETRQWGGLTLTLIIASVGIAGALPWGILLALGRRSHMPIVRILSVIFIEFWRGVPLITVLFMSSVMLPLFMAEGTSIDKLIRALVGVILFQSAYVAEVVRGGLQALPKGQYEAAESLALGYWKTQGLVILPQALKLVIPGLVNTIIALFKDTSLVIIIGLFDLFSSVQQATVDPAWLGMSTEGYVFAALIYWIFCFSMSRYSQYLEKRFNTGRTPH | – | – | – | – | – | – | – | – | 4.17 | – | – | –
